Test results: article PMC8930625 (Journal of inorganic biochemistry, 2022)

T1: Methyl-Coenzyme M Reductase (MCR) chain A (Methanothermobacter marburgensis, UniProt P11558 1-550)
T1 sequence (looked up): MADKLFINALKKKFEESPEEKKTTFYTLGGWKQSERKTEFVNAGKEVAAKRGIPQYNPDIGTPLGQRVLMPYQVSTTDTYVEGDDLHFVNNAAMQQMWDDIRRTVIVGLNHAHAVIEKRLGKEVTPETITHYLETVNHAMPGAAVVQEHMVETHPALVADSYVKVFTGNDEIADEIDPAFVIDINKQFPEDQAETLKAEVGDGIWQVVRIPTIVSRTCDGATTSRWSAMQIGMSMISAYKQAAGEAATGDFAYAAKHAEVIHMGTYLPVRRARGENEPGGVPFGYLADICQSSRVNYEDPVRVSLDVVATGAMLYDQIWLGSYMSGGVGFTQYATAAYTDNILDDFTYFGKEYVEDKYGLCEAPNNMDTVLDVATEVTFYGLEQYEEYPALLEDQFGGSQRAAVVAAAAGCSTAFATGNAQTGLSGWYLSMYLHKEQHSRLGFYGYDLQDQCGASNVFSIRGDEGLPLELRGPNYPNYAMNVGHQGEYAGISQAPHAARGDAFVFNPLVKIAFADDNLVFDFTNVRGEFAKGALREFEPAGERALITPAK

B1: Methyl-Coenzyme M Reductase (MCR) chain B (natural protein, Methanothermobacter marburgensis, UniProt P11560 1-443, looked up)
chain: MAKFEDKVDLYDDRGNLVEEQVPLEALSPLRNPAIKSIVQGIKRTVAVNLEGIENALKTAKVGGPACKIMGRELDLDIVGNAESIAAAAKEMIQVTEDDDTNVELLGGGKRALVQVPSARFDVAAEYSAAPLVTATAFVQAIINEFDVSMYDANMVKAAVLGRYPQSVEYMGANIATMLDIPQKLEGPGYALRNIMVNHVVAATLKNTLQAAALSTILEQTAMFEMGDAVGAFERMHLLGLAYQGMNADNLVFDLVKANGKEGTVGSVIADLVERALEDGVIKVEKELTDYKVYGTDDLAMWNAYAAAGLMAATMVNQGAARAAQGVSSTLLYYNDLIEFETGLPSVDFGKVEGTAVGFSFFSHSIYGGGGPGIFNGNHIVTRHSKGFAIPCVAAAMALDAGTQMFSPEATSGLIKEVFSQVDEFREPLKYVVEAAAEIKNEI

Tests used:
Assay in all cases: crystal structure
[1] = target: T1, Methyl-Coenzyme M Reductase (MCR) chain …
[2] = target: the molecule itself
[3] = target: B1

Binder | binding result [1] | stoichiometry N [2] | binding result [3]
B1 | binds | – | –
Methyl-Coenzyme M Reductase (MCR) heterotrimer of chains A, B and C, MCRred1-silent Ni(II) form (complex, Methanothermobacter marburgensis) chain 1: MADKLFINALKKKFEESPEEKKTTFYTLGGWKQSERKTEFVNAGKEVAAKRGIPQYNPDIGTPLGQRVLMPYQVSTTDTYVEGDDLHFVNNAAMQQMWDDIRRTVIVGLNHAHAVIEKRLGKEVTPETITHYLETVNHAMPGAAVVQEHMVETHPALVADSYVKVFTGNDEIADEIDPAFVIDINKQFPEDQAETLKAEVGDGIWQVVRIPTIVSRTCDGATTSRWSAMQIGMSMISAYKQAAGEAATGDFAYAAKHAEVIHMGTYLPVRRARGENEPGGVPFGYLADICQSSRVNYEDPVRVSLDVVATGAMLYDQIWLGSYMSGGVGFTQYATAAYTDNILDDFTYFGKEYVEDKYGLCEAPNNMDTVLDVATEVTFYGLEQYEEYPALLEDQFGGSQRAAVVAAAAGCSTAFATGNAQTGLSGWYLSMYLHKEQHSRLGFYGYDLQDQCGASNVFSIRGDEGLPLELRGPNYPNYAMNVGHQGEYAGISQAPHAARGDAFVFNPLVKIAFADDNLVFDFTNVRGEFAKGALREFEPAGERALITPAK chain 2: MAKFEDKVDLYDDRGNLVEEQVPLEALSPLRNPAIKSIVQGIKRTVAVNLEGIENALKTAKVGGPACKIMGRELDLDIVGNAESIAAAAKEMIQVTEDDDTNVELLGGGKRALVQVPSARFDVAAEYSAAPLVTATAFVQAIINEFDVSMYDANMVKAAVLGRYPQSVEYMGANIATMLDIPQKLEGPGYALRNIMVNHVVAATLKNTLQAAALSTILEQTAMFEMGDAVGAFERMHLLGLAYQGMNADNLVFDLVKANGKEGTVGSVIADLVERALEDGVIKVEKELTDYKVYGTDDLAMWNAYAAAGLMAATMVNQGAARAAQGVSSTLLYYNDLIEFETGLPSVDFGKVEGTAVGFSFFSHSIYGGGGPGIFNGNHIVTRHSKGFAIPCVAAAMALDAGTQMFSPEATSGLIKEVFSQVDEFREPLKYVVEAAAEIKNEI chain 3: MAQYYPGTTKVAQNRRNFCNPEYELEKLREISDEDVVKILGHRAPGEEYPSVHPPLEEMDEPEDAIREMVEPIDGAKAGDRVRYIQFTDSMYFAPAQPYVRSRAYLCRYRGADAGTLSGRQIIETRERDLEKISKELLETEFFDPARSGVRGKSVHGHSLRLDEDGMMFDMLRRQIYNKDTGRVEMVKNQIGDELDEPVDLGEPLDEETLMEKTTIYRVDGEAYRDDVEAVEIMQRIHVLRSQGGFNLE | – | 2 | –
Methyl-Coenzyme M Reductase (MCR) chain C (natural protein, Methanothermobacter marburgensis, UniProt P11562 1-249, looked up) MAQYYPGTTKVAQNRRNFCNPEYELEKLREISDEDVVKILGHRAPGEEYPSVHPPLEEMDEPEDAIREMVEPIDGAKAGDRVRYIQFTDSMYFAPAQPYVRSRAYLCRYRGADAGTLSGRQIIETRERDLEKISKELLETEFFDPARSGVRGKSVHGHSLRLDEDGMMFDMLRRQIYNKDTGRVEMVKNQIGDELDEPVDLGEPLDEETLMEKTTIYRVDGEAYRDDVEAVEIMQRIHVLRSQGGFNLE | binds | – | binds
